Consider four molecules from PMC10154332, “Mirror proteorhodopsins” (Communications Chemistry, 2023).

For data set [1], the target named is T1, SpaR (Sphingomonas paucimobilis rhodopsin) (Sphingomonas paucimobilis, UniProt A0A411LJN5).
T1 construct: gene HKX06_19670; E. coli C41(DE3) codon-optimised gene in pET32b (NdeI/XhoI), C-terminal His tag, DDM-solubilised, Ni-NTA and SEC; trimer
T1 sequence (A0A411LJN5 1-237): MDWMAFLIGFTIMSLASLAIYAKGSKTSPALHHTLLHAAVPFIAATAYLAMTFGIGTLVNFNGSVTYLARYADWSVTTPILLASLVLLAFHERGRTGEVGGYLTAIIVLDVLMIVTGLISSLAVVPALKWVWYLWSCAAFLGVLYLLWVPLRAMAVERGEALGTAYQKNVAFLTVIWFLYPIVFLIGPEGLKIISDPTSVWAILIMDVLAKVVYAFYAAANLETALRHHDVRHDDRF
Briefly: X-ray crystallography, in meso crystals, […] A. It counts as binding. Particulars: covalent Schiff base to K211; crystals at pH 5.2.

In data set [2] the target is Sphingomonas paucimobilis rhodopsin (SpaR) (Sphingomonas paucimobilis). Nature of the data set: crystal structure; in meso (monoolein) crystals, 0.78 M NaH2PO4/K2HPO4 pH 5.2, 22 °C; space group C2; 2.8 Å.
For data set [3] the target is unchanged. Nature of the data set: SEC; DDM-solubilized SpaR at five pH values (4.4, 5.4, 6.4, 7.4, 8.4); at pH 4.4 only a single trimer peak, further peaks of higher molecular weight with increasing pH.
Data set [4] shares this target. Briefly: SAXS; solubilized SpaR ~5 mg/ml in 100 mM NaCl, 0.5 mM EDTA, 0.01% NaN3, 20 mM TRIS(HCl) pH 7.2, 0.05% DDM; profile 0.04-0.26 1/A fitted with MEMPROT (detergent corona), trimer against monomer model.
The target of data set [5] is Asp97 (UniProt position 97, …). Particulars: cited from earlier work.
The target of data set [6] is Asp73 (position 73, …). Nature of the data set: UV-vis. The conditions noted are these: 150 mM NaCl, 50 mM MES, Dark (ground) state, DDM-solubilised.

On to `CC1=C(/C=C/C(C)=C/C=C/C(C)=C/C=O)C(C)(C)CCC1` [retinal], for which the “X-ray crystallography, in meso crystals, 2.8 A” value in data set [1] is on record as “the retinal co-factor is covalently bound to the K211 residue of the helix G”.

As to “Sphingomonas paucimobilis rhodopsin (SpaR) (natural protein)”, the stoichiometry N in data set [2], in data set [3] and in data set [4] was 3 throughout.

B1: Green proteorhodopsin (PR) (uncultured marine gamma proteobacterium (printed as 'Gamma-proteobacterium')) (protein)
chain: MKLLLILGSVIALPTFAAGGGDLDASDYTGVSFWLVTAALLASTVFFFVERDRVSAKWKTSLTVSGLVTGIAFWHYMYMRGVWIETGDSPTVFRYIDWLLTVPLLICEFYLILAAATNVAGSLFKKLLVGSLVMLVFGYMGEAGIMAAWPAFIIGCLAWVYMIYELWAGEGKSACNTASPAVQSAYNTMMYIIIFGWAIYPVGYFTGYLMGDGGSALNLNLIYNLADFVNKILFGLIIWNVAVKESSNA
Take B1: in data set [5], the pKa (usually the pH at which an ionisable group is half protonated) is on record as 7.68.

B2: SpaR (Sphingomonas paucimobilis rhodopsin, mirror proteorhodopsin) (Sphingomonas paucimobilis) (protein)
chain: T1 sequence (A0A411LJN5 1-237)
For B2, the pKa in data set [6] (5 mM ZnCl2, in the presence of 5 mM Zn2+) is given as 0.98±0.01; in data set [6] (no Zn2+), 1.03±0.01.
